Test results published in paper PMC3348966 (Proteins, 2012).
Read-outs that look alike come from different tables or passages of the source.

How the values were obtained:
[1] = molecular target: XloA (Thermotoga maritima, UniProt Q9WXT1); assay: p-nitrophenol release at […] nm; format: biochemical; conditions: data not shown; auxiliary enzyme
[2] = substrate: CC(=O)Oc1ccc([N+](=O)[O-])cc1; assay: purified protein; format: biochemical, Thermotoga maritima; conditions: 50 mM citrate-phosphate pH 6, 70 °C (standard assay)
[3] = substrate: CC(=O)O[C@@H]1[C@@H](O)[C@H](Oc2ccc([N+](=O)[O-])cc2)OC[C@H]1O; assay: purified protein; format: biochemical, Thermotoga maritima; conditions: 0.1 M sodium phosphate pH 7, 60 °C, excess XloA
[4] = substrate: CC(=O)O[C@H]1[C@H](Oc2ccc([N+](=O)[O-])cc2)OC[C@@H](O)[C@@H]1O; assay: purified protein; format: biochemical, Thermotoga maritima; conditions: 0.1 M sodium phosphate pH 7, 60 °C, excess XloA
[5] = substrate: CC(=O)O[C@@H]1CO[C@@H](Oc2ccc([N+](=O)[O-])cc2)[C@H](O)[C@H]1O; assay: purified protein; format: biochemical, Thermotoga maritima; conditions: 0.1 M sodium phosphate pH 7, 60 °C, excess XloA
[6] = substrate: CCC(=O)Oc1ccc([N+](=O)[O-])cc1; assay: purified protein; format: biochemical, Thermotoga maritima; conditions: 50 mM citrate-phosphate pH 6, 70 °C (standard assay)
[7] = molecular target: the molecule itself; assay: crystal structure
[8] = molecular target: the molecule itself; assay: crystal structure; remark: listed apart in the source

Question: How did the “p-nitrophenol release at 405 nm” value [1] turn out when `O=[N+]([O-])c1ccc(O[C@@H]2OC[C@@H](O)[C@H](O)[C@H]2O)cc1` [4-nitrophenyl β-D-xylopyranoside] was run?
Answer: The value was “its activity was confirmed by measuring release of p-nitrophenol from the substrate pNP-Xyl”.

B1: TM0077 (Thermotoga maritima MSB8) (protein)
chain: MAFFDLPLEELKKYRPERYEEKDFDEFWEETLAESEKFPLDPVFERMESHLKTVEAYDVTFSGYRGQRIKGWLLVPKLEEEKLPCVVQYIGYNGGRGFPHDWLFWPSMGYICFVMDTRGQGSGWLKGDTPDYPEGPVDPQYPGFMTRGILDPRTYYYRRVFTDAVRAVEAAASFPQVDQERIVIAGGSQGGGIALAVSALSKKAKALLCDVPFLCHFRRAVQLVDTHPYAEITNFLKTHRDKEEIVFRTLSYFDGVNFAARAKIPALFSVGLMDNICPPSTVFAAYNYYAGPKEIRIYPYNNHEGGGSFQAVEQVKFLKKLFEKG
Question: What does the source list for B1?
Answer: Km [2]: 0.185 ± 0.026 mM; kcat [2]: 57.5 ± 2.2 s⁻¹; kcat/Km [2]: 311000 ± 45300 M⁻¹ s⁻¹; Km [3]: 4.2 ± 0.4 mM; kcat [3]: 70.1 ± 7.7 s⁻¹; kcat/Km [3]: 16700 ± 2400 M⁻¹ s⁻¹; Km [4]: 3.6 ± 0.5 mM; kcat [4]: 76.1 ± 19.2 s⁻¹; kcat/Km [4]: 21100 ± 6100 M⁻¹ s⁻¹; Km [5]: 4.0 ± 0.1 mM; kcat [5]: 78.6 ± 12.9 s⁻¹; kcat/Km [5]: 19700 ± 3300 M⁻¹ s⁻¹; Km [6]: 0.137 ± 0.013 mM; kcat [6]: 41.3 ± 1.1 s⁻¹; kcat/Km [6]: 302000 ± 29700 M⁻¹ s⁻¹

B2: TM0077-PMSF complex (TM0077 with PMS-modified Ser188) (enzyme, Thermotoga maritima, UniProt Q9WXT2 1-325, looked up)
chain: B1 chain
modifications: phenylmethyl sulfonyl (PMS) moiety covalently bound to the Oγ atom of Ser188
Question: Which “stoichiometry N” value [7] does the source give for B2 here?
Answer: The value was 6.

B3: native TM0077 (acetyl esterase from Thermotoga maritima) (enzyme, UniProt Q9WXT2 1-325, looked up)
chain: B1 chain
Question: B3 was tested. Which “stoichiometry N” value [7] did it give?
Answer: The value was 6.

B4: selenomethionine-substituted TM0077 (acetyl esterase from Thermotoga maritima) (enzyme, UniProt Q9WXT2 1-325, looked up)
chain: B1 chain
modifications: selenomethionine-substituted (selenomethionine in place of methionine)
Question: With B4 as the molecule, how does the “stoichiometry N” value [8] read?
Answer: Its value is 6.

B5: TM0077-paraoxon complex (TM0077 with DEP-modified Ser188) (enzyme, Thermotoga maritima, UniProt Q9WXT2 1-325, looked up)
chain: B1 chain
modifications: diethyl-phosphate (DEP) moiety covalently bound to the Oγ atom of Ser188
Question: For B5, which “stoichiometry N” value [7] is on record?
Answer: Its value is 6.
